Results on one molecule are retold here after US11175293 (UNIVERSITY OF UTAH RESEARCH FOUNDATION, dated 2021).

The target of this experiment is T1, NanoSpike.
T1 construct: also called IH4vs2-Spike
The experiment can be described thus: flow cytometry on human whole blood, detected with FITC-conjugated anti-Strep-tag antibodies. (In general: A flow cytometer gives signals particle by particle.)

B1: Glycophorin A (GYPA) on the surface of human red blood cells (other)
chain: LSTTEVAMHTSTSSSVTKSYISSQTNDTHKRDTYAATPRAHEVSEISVRTVYPPEEETGERVQLAHHFSEPEITLIIFGVMAGVIGTILLISYGIRRLIKKSPSDVKPLPSPDTDVPLSSVEIENPETSDQ
notes: whole, on cells; also called GPA; RBC
For the molecule B1, the binding result was “binds”.
